Experiments:
Cdk1 protein = Cdk1 protein (UniProt P06493); experiment: cell-based or functional assay
[1] = target: CBP protein (CREB Binding Protein); experiment: cell-based or functional assay

Cdk1 protein, sequence (P06493 whole entry): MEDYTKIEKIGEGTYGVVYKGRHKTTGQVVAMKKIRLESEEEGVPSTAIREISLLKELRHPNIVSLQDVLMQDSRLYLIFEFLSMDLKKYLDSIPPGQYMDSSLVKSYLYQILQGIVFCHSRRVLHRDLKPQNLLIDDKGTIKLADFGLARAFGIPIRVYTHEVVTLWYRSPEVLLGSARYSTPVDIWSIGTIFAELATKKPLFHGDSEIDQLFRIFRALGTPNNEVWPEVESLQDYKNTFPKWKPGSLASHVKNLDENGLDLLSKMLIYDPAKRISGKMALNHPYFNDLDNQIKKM

Substance | FoxM1B transcriptional activity (6x FoxM1B TATA-luciferase reporter, U2OS cells) (Cdk1 protein) | FoxM1B transcriptional activity (6x FoxM1B TATA-luciferase reporter, U2OS cells) (% stimulation) [1]
CMV T7-FoxM1B L641A mutant protein (from UniProt Q08050 1-763) | 80 % reduction | –
T7-FoxM1B WT protein (CMV T7-FoxM1B WT) (from UniProt Q08050 1-763) | – | 50
